Test results published in patent publication US5981720.
Blank lines part the entries; values can stand above or below the binder they belong to. No end group written: not given here. *: point of attachment. βGlcNAc = CC(=O)N[C@@H]1[C@@H](O)[C@H](O)[C@@H](CO)O[C@H]1*

Tests used:
[1] = molecular target: yeast alpha-glucosidase (yeast)
[2] = molecular target: yeast alpha-glucosidase (yeast); remark: listed apart in the source
[3] = molecular target: yeast alpha-glucosidase (yeast); conditions: scale: decrease of umole of glucose production from maltose per microgram of protein per hour
[4] = molecular target: yeast alpha-glucosidase (yeast); remark: listed apart in the source

inhibitory effect on alpha-glucosidase activity (% increase in inhibitory effect) [1]: 50
Binder: GGN(βGlcNAc)K(pyridoxal 5‑phosphate) [pyridoxal 5-phosphate modified glycopeptide]

inhibitory effect on alpha-glucosidase activity [4]: 90%
Binder: GGN(βGlcNAc)K [synthetic glycopeptide Gylcyl-glycl-(NB-2-(acetylamino)-deoxy-2-B-pyranosyl)-asparaginyl-lysine]

Continued, binder first:

B1: PNGase treated CON-1 (protein)
chain: SPPGKPQGPPPQGGNQPQGPPPPPGKPQGPPPQGGNKPQGPPPPGKPQGPPPQGDNKSQSARSPPGKPQGPPPQGGNQPQGPPPPPGKPQGPPPQGGNKSQGPPPPGKPQGPPPQGGSKSRSSR
modifications: carbohydrate moiety removed with PNGase
alpha-glucosidase inhibition assay [2]: 50 percent

B2: CON-1 (protein)
chain: B1 chain
modifications: glycoprotein; glycosylation occurs at one N-linked site (acetylglucosamine on asparagine of glycine-glycine-asparagine-lysine)
Specific Inhibitory Activity [3]: 2810

Binder: GGNK (acetylglucosamine cleaved off the asparagine with N-acetylglucosaminidase) [glycopeptide treated with N-acetylglucosaminidase]
inhibitory effect on alpha-glucosidase activity (% of inhibition lost) [1]: 20
